These are literature values, as cited in paper PMC4370504.

This data set concerns the target ubiquitin (Homo sapiens) (UniProt P0CG47). As to the kind of experiment: ITC.

Chain of Pol eta UBZ (Q9Y253 625-665): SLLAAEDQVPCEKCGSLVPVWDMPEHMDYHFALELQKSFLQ

On to Pol eta UBZ (from UniProt Q9Y253), for which the Kd was 81 µM.

The Kd is the equilibrium constant for the complex coming apart.
